Results published in PMC5496246, “Site-specific chemical conjugation of human Fas ligand extracellular domain using trans-cyclooctene – methyltetrazine reactions” (BMC Biotechnology, 2017).

Columns and labels:
Assay in all cases: co-IP; receptor-mediated co-immunoprecipitation: sample (5.5 ug) with hFasRECD-Fc (8.8 ug) and Protein G conjugated magnetic beads (1.0 mg) in 1.0 ml 50 mM Tris-HCl, 150 mM NaCl (pH 7.5), 1% Nonidet P40, 0.5% sodium deoxycholate; precipitate read by SDS-PAGE with silver stain
Conditions in all cases: both partners purified
[1] = target: T1, TCO-derivative of NFK3G1CG4-hFasLECD (human, UniProt P48023 139-281, N184Q | N250Q, cysteine in the N-terminal tag sequence modified with trans-cyclooctene-PEG3-maleimide)
T1 construct: holds the reactive cysteine; human Fas ligand extracellular domain, residues 139-281, with N184Q and N250Q; also called hFasLECD-TCO; source: P. pastoris secretory expression, purified (cation exchange); modified with TCO-PEG3-MAL, size-exclusion chromatography; not shown: FLAG, N-terminal, kept
T1 sequence: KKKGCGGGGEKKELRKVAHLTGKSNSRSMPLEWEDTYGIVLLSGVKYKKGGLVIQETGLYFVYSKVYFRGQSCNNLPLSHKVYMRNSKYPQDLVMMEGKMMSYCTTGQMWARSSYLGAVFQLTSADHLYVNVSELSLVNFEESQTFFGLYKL

[2] = target: T2, sulfo-Cy3-TCO conjugated hFasLECD-MTZ (human, UniProt P48023 139-281, N184Q | N250Q, cysteine in the N-terminal tag sequence modified with methyltetrazine-PEG4-maleimide and conjugated with sulfo-Cy3-trans-cyclooctene; estimated 1.6 fluorochromes per hFasLECD trimer)
T2 construct: holds the reactive cysteine; human Fas ligand extracellular domain, residues 139-281, with N184Q and N250Q; Derived from NFK3G1CG4-hFasLECD; Not every subunit of the trimer carries the fluorochrome; also called Sulfo-Cy3-TM-hFasLECD; sulfo-Cy3 conjugated hFasLECD; source: P. pastoris secretory expression, purified (cation exchange); modified with MTZ-PEG4-MAL, reacted with sulfo-Cy3-TCO, purified …
T2 sequence: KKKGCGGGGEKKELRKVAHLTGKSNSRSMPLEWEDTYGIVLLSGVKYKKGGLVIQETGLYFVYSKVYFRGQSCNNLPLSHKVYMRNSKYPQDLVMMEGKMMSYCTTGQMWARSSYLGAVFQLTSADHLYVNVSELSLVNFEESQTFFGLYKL

[3] = target: T3, sulfo-Cy3-MTZ conjugated hFasLECD-TCO (human, UniProt P48023 139-281, N184Q | N250Q, cysteine in the N-terminal tag sequence modified with trans-cyclooctene-PEG3-maleimide and conjugated with sulfo-Cy3-methyltetrazine; estimated 1.5 fluorochromes per hFasLECD trimer)
T3 construct: holds the reactive cysteine; human Fas ligand extracellular domain, residues 139-281, with N184Q and N250Q; Derived from NFK3G1CG4-hFasLECD; Not every subunit of the trimer carries the fluorochrome; also called Sulfo-Cy3-MT-hFasLECD; sulfo-Cy3 conjugated hFasLECD; source: P. pastoris secretory expression, purified (cation exchange); modified with TCO-PEG3-MAL, reacted with sulfo-Cy3-MTZ, purified …
T3 sequence: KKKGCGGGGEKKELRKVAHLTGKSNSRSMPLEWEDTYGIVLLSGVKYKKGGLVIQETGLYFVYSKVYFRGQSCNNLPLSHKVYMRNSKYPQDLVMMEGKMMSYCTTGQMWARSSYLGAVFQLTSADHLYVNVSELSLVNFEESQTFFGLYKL

[4] = target: T4, Avidin-hFasLECD conjugate (human | chicken, UniProt P48023 139-281; P02701 25-152, N184Q | N250Q, cysteine in the N-terminal tag sequence modified with trans-cyclooctene-PEG3-maleimide, joined through the TCO-MTZ reaction to an MTZ-PEG4 group on avidin | lysine residues modified with …)
T4 construct: holds the reactive cysteine; human Fas ligand extracellular domain, residues 139-281, with N184Q and N250Q; avidin from chicken egg white, native homotetramer; Covalent chemical conjugate, thought to be one avidin tetramer to one hFasLECD trimer; on SDS-PAGE mainly one avidin subunit joined to one hFasLECD subunit, less of one avidin subunit with two hFasLECD subunits; not shown: FLAG, …
T4 sequence (P02701 25-152, stated change not applied, one chain of several): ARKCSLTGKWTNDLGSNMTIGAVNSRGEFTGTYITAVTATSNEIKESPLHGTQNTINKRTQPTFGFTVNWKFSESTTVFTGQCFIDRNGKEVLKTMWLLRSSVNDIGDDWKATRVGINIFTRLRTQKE

Measured: binding result

B1: human Fas receptor extracellular domain-human IgG1 Fc domain fusion protein (Fc fusion, UniProt P25445 26-173, looked up)
chain: QVTDINSKGLELRKTVTTVETQNLEGLHHDGQFCHKPCPPGERKARDCTVNGDEPDCVPCQEGKEYTDKAHFSSKCRRCRLCDEGHGLEVEINCTRTQNTKCRCKPNFFCNSTVCEHCDPCTKCEHGIIKECTLTSNTKCKEEGSRSN
notes: human Fas receptor (hFasR) extracellular domain; also called hFasRECD-Fc; source: baculovirus - Bombyx mori expression system, purified
binds: [1] | [2] | [3] | [4]
